According to patent publication US9259479B2, “Treatment for comorbid diabetes with chronic kidney disease” (Eli Lilly and Company, priority 2012, dated 2016):
Like-named read-outs stand apart in the source and are kept apart here.

Settings: rat, in vivo
Method: To induce diabetes, 10-week old male Harlan Sprague Dawley rats (Harlan, Indianapolis, Ind., USA) 250-280 g body weight, are dosed intravenously (IV) via tail vein with 45 mg/kg streptozotocin (STZ) in 0.5 M citric acid, pH 4.5, three days prior to study. […] Graphical and noncompartmental PK analyses are performed using SigmaPlot v11 (Systsat Software, Inc., San Jose, Calif.) and WinNonlin® Professional v5.3 (Pharsight®, St Louis, Mo., USA), respectively.

PEG20kDa-LysB29 human insulin
Tmax (male, Harlan Sprague Dawley, sc): 12 ± 0 h | CL/F (male, Sprague Dawley, sc): 1.13 ± 0.12 mL/min/kg | PK profile of the two molecules compared: statistically similar | CL/F (sc): 1.67 ± 0.33 mL/min/kg | Cmax (sc, 93 nmol/kg): 41.1 ± 6.3 nM
